According to patent US20250084177A1 (HUAHUI HEALTH, published 2025):
Numbering of substitutions follows the chain as printed. Names and notes keep the numbering of the source.

What was measured:
[1] = target: T1, hCD98 ECD-His6-Avi (human, UniProt P08195 105-529, biotinylated by BirA ligase on the Avi tag (form used in ELISA)); assay: SPR (Biacore T200), antibody captured, hCD98 ECD as analyte
T1 construct: also called hCD98 ECD-His6-Avi-Biotin; not shown: His6-Avi tag
T1 sequence: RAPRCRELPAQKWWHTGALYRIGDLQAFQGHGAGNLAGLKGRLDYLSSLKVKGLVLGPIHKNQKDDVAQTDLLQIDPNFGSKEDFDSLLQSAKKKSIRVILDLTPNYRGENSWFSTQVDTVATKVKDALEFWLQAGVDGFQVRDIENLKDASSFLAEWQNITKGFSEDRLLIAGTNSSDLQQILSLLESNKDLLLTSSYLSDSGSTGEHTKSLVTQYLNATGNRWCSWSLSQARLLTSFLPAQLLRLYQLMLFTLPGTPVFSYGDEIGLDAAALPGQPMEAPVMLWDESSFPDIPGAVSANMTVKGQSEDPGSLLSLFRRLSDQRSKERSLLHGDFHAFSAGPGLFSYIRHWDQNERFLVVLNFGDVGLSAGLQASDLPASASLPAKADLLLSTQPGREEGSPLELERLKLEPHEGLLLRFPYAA

[2] = target: T1, hCD98 ECD-His6-Avi; assay: SPR (Biacore T200), antibody captured, hCD98 ECD as analyte, 1:1 Langmuir model
Experimental: (§1) Kinetic analysis of the bindings of anti-CD98 antibodies to the ECD of CD98, and the ECD of FcγRs were performed on a Biacore T200 instrument (Biacore, GE Healthcare). Anti-hFc Ab or protein A/G (Thermo Fisher Scientific) was covalently attached to the surface of a CM5 sensor chip using an amine coupling kit (GE Healthcare). Antibodies at optimal concentrations were captured on the chip and the analytes (CD98 or FcγRs) were then injected at 2-fold serial diluted concentrations. Binding kinetics were evaluated using a 1:1 Langmuir binding model. The ka, kd, and KD values were calculated using Biacore T200 evaluation software.

[3] = target: T1, hCD98 ECD-His6-Avi; assay: ELISA at pH 7.4 and pH 6.5 on hCD98 ECD-His6-Avi-Biotin
[4] = target: T1, hCD98 ECD-His6-Avi; assay: ELISA at pH 6.5 on hCD98 ECD-His6-Avi-Biotin
[5] = target: T1, hCD98 ECD-His6-Avi; assay: ELISA at pH 7.4 on hCD98 ECD-His6-Avi-Biotin
[6] = target: T1, hCD98 ECD-His6-Avi; assay: ELISA at pH 7.4 and pH 6.5 on hCD98 ECD
[7] = target: T1, hCD98 ECD-His6-Avi; assay: ELISA, EC50 ratio pH 7.4/6.5 against that of S1-F4 Y97E
Experimental: (§2) For the ELISA-based analysis of antibody binding with antigen, biotinylated protein antigens were captured with streptavidin (Sigma-Aldrich) coated 96-well plates (Nunc, MaxiSorp™). Then, serially diluted antibodies were added, and detected by adding an HRP-labeled goat polyclonal anti-Human IgG Fc (Thermo Fisher Scientific).

[8] = target: T1, hCD98 ECD-His6-Avi; assay: ELISA at pH 6.5, ratio of EC50 values against S1-F4 Y97E
[9] = target: T1, hCD98 ECD-His6-Avi; assay: ELISA at pH 6.5, biotinylated hCD98 ECD captured on streptavidin
Experimental: as §2

[10] = target: T1, hCD98 ECD-His6-Avi; assay: ELISA at pH 7.4, biotinylated hCD98 ECD captured on streptavidin, HRP anti-human IgG Fc
Experimental: as §2

[11] = target: T1, hCD98 ECD-His6-Avi; assay: ELISA at pH 6.5, biotinylated hCD98 ECD captured on streptavidin; pH 6.5
Experimental: as §2

[12] = target: T1, hCD98 ECD-His6-Avi; assay: ELISA at pH 7.4, biotinylated hCD98 ECD captured on streptavidin; pH 7.4
Experimental: as §2

[13] = target: T2, HEK293T-mCD98 (Mus musculus, UniProt P10852); assay: FACS on leukocytes of C57BL/6 mice, FITC anti-human IgG secondary
T2 construct: full length, on cells or tissue; Cell-surface counterpart of m7 (the soluble mCD98 ECD), as m5 is of m4; also called mouse CD98 (mCD98) on cells; CD98 of C57BL/6 kidney and leukocytes
T2 sequence (CD98 heavy chain, looked up): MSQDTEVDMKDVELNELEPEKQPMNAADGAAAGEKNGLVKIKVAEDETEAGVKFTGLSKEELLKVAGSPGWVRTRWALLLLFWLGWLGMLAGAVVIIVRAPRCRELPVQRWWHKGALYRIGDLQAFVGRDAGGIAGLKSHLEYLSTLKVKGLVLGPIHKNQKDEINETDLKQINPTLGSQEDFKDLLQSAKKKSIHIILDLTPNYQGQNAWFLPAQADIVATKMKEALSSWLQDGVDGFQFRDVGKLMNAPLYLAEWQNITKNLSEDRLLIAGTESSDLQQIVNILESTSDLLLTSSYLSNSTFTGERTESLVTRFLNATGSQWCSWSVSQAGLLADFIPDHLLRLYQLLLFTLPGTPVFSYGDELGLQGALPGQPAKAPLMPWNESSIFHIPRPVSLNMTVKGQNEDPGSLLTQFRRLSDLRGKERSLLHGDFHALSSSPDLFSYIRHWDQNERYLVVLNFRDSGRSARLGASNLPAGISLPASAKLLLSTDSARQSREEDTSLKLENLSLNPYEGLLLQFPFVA

[14] = target: T3, mouse CD98 (mCD98) ECD (mouse, UniProt P10852 100-526); assay: SPR (Biacore T200), antibody captured, CD98 ECD as analyte; table cells 'n.m.'
T3 construct: extracellular domain; By the methods the CD98 ECDs were His6-Avi-tagged; also called murine CD98
T3 sequence (looked up): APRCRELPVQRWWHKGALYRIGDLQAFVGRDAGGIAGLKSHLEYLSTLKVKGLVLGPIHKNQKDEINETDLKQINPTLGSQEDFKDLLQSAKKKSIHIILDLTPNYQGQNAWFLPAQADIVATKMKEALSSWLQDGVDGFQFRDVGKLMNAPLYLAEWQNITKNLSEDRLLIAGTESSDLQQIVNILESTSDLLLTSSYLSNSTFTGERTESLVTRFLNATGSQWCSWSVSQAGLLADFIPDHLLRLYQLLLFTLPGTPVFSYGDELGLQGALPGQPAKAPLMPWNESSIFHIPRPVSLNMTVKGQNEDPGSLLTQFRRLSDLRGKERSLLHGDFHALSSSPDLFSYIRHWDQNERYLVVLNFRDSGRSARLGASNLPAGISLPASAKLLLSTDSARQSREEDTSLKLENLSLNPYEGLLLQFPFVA
Experimental: as §1

[15] = target: T1, hCD98 ECD-His6-Avi; assay: SPR (Biacore T200), antibody captured, CD98 ECD as analyte, 1:1 Langmuir model
Experimental: as §1

[16] = target: T3, mouse CD98 (mCD98) ECD; assay: SPR (Biacore T200), antibody captured, mouse CD98 ECD as analyte, 1:1 Langmuir model
Experimental: as §1

[17] = target: T4, human CD98 (hCD98) on cells (human, UniProt P08195 2-529); assay: immunofluorescence on kidney sections of CD98 humanized mice (hCD98 ECD knock-in), FITC anti-human IgG secondary
T4 construct: also called CHO-hCD98; hCD98-expressing CHO cells
T4 sequence: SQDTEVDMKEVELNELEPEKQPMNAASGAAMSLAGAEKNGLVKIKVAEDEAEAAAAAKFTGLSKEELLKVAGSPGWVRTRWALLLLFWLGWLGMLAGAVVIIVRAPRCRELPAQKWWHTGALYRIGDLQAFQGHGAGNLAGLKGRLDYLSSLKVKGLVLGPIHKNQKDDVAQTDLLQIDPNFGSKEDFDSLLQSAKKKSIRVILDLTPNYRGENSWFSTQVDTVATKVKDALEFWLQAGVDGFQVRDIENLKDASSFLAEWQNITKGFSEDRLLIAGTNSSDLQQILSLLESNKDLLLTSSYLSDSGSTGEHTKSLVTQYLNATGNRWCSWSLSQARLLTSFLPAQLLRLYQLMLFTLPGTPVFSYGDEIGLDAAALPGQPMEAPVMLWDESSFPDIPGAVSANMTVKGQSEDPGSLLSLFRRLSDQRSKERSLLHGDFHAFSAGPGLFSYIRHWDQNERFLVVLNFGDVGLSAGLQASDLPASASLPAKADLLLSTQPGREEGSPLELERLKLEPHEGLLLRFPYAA

B1: HN2-G9 (antibody, V domains shown)
VH: QVQLVQSGAEVKKPGSSVKVSCKASGYTFTSYYMHWVRQAPGQGLEWMGIINPSGGSTSYAQKFQGRVTMTRDTSTSTVYMELSSLRSEDTAVYFCARGYCSGGRCYSDFQHWGQGTLVTVSS
VL: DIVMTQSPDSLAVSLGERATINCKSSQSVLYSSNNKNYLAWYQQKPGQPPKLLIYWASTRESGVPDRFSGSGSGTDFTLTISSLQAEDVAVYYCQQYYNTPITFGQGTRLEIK
Kd [1]: 1290 nM | koff [2]: 0.102 s⁻¹ | kon [2]: 787000 M⁻¹ s⁻¹

B2: IGN523 (antibody, V domains shown)
VH: QVQLVQSGAEVKKPGSSVKVSCKASGNAFTNYLIEWVRQAPGQGLEWMGVINPGSGITNYNEKFKGKATITADKSTSTAYMELSSLRSEDTAVYYCSGSANWFAYWGQGTLVTVSS
VL: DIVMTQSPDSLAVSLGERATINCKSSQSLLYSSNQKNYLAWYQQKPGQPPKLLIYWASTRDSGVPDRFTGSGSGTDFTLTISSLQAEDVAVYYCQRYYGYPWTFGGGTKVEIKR
Kd [2]: 0.722 nM | koff [2]: 0.000145 s⁻¹ | kon [2]: 201000 M⁻¹ s⁻¹

B3: Ab8332 (antibody, V domains shown)
VH: QVQLVQSGAEVKKPGASVKVSCKASGYTFTSYQMHWVRQAPGQGLEWMGIINPSGGSTSYAQKFQGRVTMTRDTSTSTVYMELSSLRSEDTAVYYCARGYEDSNTHQHPIFFDIWGQGTMVTVSS
VL: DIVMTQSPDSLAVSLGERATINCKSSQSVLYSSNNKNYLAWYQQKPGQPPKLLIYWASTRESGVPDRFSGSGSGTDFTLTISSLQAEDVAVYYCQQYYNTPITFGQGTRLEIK
notes: human IgG1 format by the methods
EC50 ratio (pH 7.4/6.5) [3]: 50.7 | EC50 (read off the curve) [4]: ~0.1 nM | EC50 (read off the curve) [5]: ~5 nM

B4: H15L1 (antibody, human IgG1, V domains shown)
VH: B3 VH with P53D, S54K, G55H
VL: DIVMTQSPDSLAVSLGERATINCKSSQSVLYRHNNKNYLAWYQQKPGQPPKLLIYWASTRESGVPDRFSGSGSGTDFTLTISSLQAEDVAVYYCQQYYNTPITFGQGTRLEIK
notes: as for B3
EC50 ratio (pH 7.4/6.5) [3]: 11.8

B5: H15L54 (antibody, human IgG1, V domains shown)
VH: B3 VH with P53D, S54K, G55H
VL: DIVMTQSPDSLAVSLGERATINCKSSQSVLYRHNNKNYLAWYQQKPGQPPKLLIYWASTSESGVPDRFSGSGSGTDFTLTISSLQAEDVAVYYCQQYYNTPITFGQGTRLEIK
notes: human IgG1 format by the methods; also called pH-dependent anti-hCD98 antibody H15L54
EC50 ratio (pH 7.4/6.5) [6]: 38 | fold higher binding pH-dependence than S1-F4 Y97E [7]: ~14 fold | fold higher binding activity at pH 6.5 than S1-F4 Y97E [8]: ~7 fold | EC50 [9]: 0.247 nM | EC50 (read off the curve) [10]: ~5 nM

B6: H15L35 (antibody, human IgG1, V domains shown)
VH: B3 VH with P53D, S54K, G55H
VL: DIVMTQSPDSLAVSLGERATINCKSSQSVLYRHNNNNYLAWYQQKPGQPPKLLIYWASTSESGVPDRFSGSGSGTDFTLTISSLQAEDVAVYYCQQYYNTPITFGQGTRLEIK
notes: as for B3
EC50 ratio (pH 7.4/6.5) [3]: 16

B7: S1-F4 Y97E (antibody, V domains shown)
VH: B3 VH with Q33Y, S103I, N104L, H106G, Q107S, H108R
VL: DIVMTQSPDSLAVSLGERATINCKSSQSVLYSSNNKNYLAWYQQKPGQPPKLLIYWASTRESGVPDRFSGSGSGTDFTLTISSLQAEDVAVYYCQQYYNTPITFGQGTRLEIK
notes: S1-F4 with Y97E in HCDR3; also called S1-F4 VH Y97E
EC50 ratio (pH 7.4/6.5) [6]: 2.7 | EC50 [11]: 1.69 nM | EC50 [12]: 4.53 nM

B8: S1-F4 (antibody, V domains shown)
VH: B3 VH with Q33Y, E101Y, S103I, N104L, H106G, Q107S, H108R
VL: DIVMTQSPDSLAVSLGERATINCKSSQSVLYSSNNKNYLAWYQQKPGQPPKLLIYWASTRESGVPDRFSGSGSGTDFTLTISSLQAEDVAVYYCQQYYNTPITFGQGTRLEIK
notes: Obtained by VH chain shuffling of HN2-G9; also called anti-hCD98 antibody S1-F4
EC50 [11]: 0.059 nM | EC50 [12]: 0.046 nM | binding result [13]: no binding (tested: 10 µg/ml) | binding result [14]: no binding | Kd [15]: 58.2 nM | koff [15]: 0.0576 s⁻¹ | kon [15]: 990000 M⁻¹ s⁻¹

B9: BC8 (antibody, V domains shown)
VH: EVQLVESGGGVVQPGRSLRLSCAASGFTVSNNYMSWVRQAPGKGLEWVSVIYSGGKTYYADSAKGRFTISRDNSKNTVFLQMNSLRVEDTAVYYCARVSGLGWFDPWGQGTLVTVSS
VL: not shown
notes: human IgG1 format by the methods (detected with anti-human IgG); also called anti-mouse CD98 antibody BC8; mCD98-specific Ab
Kd [16]: 86.1 nM | koff [16]: 0.00344 s⁻¹ | kon [16]: 40000 M⁻¹ s⁻¹ | binding result [17]: no binding (tested: 15 µg/ml)
